Data from patent publication US20100135996A1 (INSTITUT NATIONAL DE LA SANTE ET DE LA RECHERCHE MEDICALE …, published 2010).

Molecular target: T1, human Anti-Mullerian Hormone type II receptor (AMHR-II) (human, UniProt Q16671 18-573)
T1 construct: whole, on cells; In the western blot it was the same protein in reduced SDS-PAGE lysates of xenografts of these cells; also called hAMHR-II
T1 sequence (looked up): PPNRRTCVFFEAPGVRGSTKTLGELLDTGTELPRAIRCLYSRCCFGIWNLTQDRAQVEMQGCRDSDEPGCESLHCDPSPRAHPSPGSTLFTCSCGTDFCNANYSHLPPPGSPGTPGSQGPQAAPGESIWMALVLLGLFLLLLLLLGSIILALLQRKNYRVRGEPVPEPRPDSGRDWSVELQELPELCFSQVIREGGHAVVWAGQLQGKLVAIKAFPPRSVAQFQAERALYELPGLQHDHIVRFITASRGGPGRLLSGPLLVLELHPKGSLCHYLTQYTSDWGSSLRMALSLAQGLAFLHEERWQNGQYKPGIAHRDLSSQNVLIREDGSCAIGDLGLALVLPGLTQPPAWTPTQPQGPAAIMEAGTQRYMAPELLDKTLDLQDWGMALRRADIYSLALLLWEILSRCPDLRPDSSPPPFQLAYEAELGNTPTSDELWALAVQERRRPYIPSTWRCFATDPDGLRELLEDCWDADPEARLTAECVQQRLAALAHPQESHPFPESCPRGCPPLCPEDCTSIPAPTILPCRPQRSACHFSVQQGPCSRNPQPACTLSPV
Assay: flow cytometry of hybridoma supernatants on AMHR-II positive cells

binding result: binds
B1: anti-AMHR-II mAb 12G4 (antibody, mouse IgG1, V domains shown)
VH: QVQLQQSGPELVKPGASVRMSCKASGYTFTSYHIHWVKQRPGQGLEWIGWIYPGDDSTKYNEKFKGKTTLTADKSSSTAYMLLSSLTSEDSAIYFCTRGDRFAYWGQGTLVTVSA
VL: QIVLTQSPAIMSASLGEGITLTCSASSSVRYIHWYQQKSGTSPKLLIYSTSNLASGVPSRFSGSGSGTFHSLTISSVEAEDAADYYCLQWSSYPWTFGGGTKLEIK
notes: also called antibody of hybridoma CNCM I-3673
